Numbered stars: 1 amine (or outer) side, 2 acyl side, 3 side chain; on linkers, the order of the positions; unused ones are H or OH. Bridge positions count the residues as written; N and C are the ends. Side chains are listed from the residue outwards. Ends that are not written are not given here. * marks the point of attachment. C20 diacid = O=C(O)CCCCCCCCCCCCCCCCCCC(=O)*; γGlu = O=C(O)[C@H](CCC(=O)[*:2])N[*:1]; AEEA = NCCOCCOCC(=O)O
T1: human amylin receptor (amylin 3(a) receptor: human calcitonin receptor co-expressed with RAMP-3) (human, UniProt P30988 25-474; O60896 24-148, limits assumed)
T1 sequence (looked up) 1: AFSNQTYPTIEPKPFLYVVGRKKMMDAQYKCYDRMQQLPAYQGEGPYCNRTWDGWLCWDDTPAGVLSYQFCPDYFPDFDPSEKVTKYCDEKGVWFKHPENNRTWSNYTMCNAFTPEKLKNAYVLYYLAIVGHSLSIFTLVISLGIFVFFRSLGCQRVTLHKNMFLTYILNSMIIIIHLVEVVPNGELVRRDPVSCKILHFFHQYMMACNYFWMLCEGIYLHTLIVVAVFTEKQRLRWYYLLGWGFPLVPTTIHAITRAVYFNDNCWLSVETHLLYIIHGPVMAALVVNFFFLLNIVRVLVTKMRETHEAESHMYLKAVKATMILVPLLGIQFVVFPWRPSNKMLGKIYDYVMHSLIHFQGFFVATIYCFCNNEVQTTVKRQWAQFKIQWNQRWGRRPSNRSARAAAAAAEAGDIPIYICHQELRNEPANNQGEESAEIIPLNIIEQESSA
T1 sequence (looked up) 2: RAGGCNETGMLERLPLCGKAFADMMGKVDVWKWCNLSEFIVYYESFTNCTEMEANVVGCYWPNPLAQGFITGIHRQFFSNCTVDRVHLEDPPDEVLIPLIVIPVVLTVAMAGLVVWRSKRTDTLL

T2: human calcitonin receptor (human, UniProt P30988 25-474)
T2 sequence (looked up): T1 sequence (looked up) 1

B1: N^ε1-[2-[2-[2-[[(4S)-4-carboxy-4-(19-carboxynonadecanoylamino)butanoyl]amino]ethoxy]ethoxy]acetyl]-[His14,Arg17,Pro21,Pro27]-h-amylin (peptide)
peptide: K([AEEA-γGlu-C20 diacid])CNTATCATQRLAHFLRHSSPNFGAIPSSTNVGSNTY-NH2
modifications: disulfide 2-7; N-terminus assumed
SMILES: CC[C@H](C)[C@H](NC(=O)[C@H](C)NC(=O)CNC(=O)[C@H](Cc1ccccc1)NC(=O)[C@H](CC(N)=O)NC(=O)[C@@H]1CCCN1C(=O)[C@H](CO)NC(=O)[C@H](CO)NC(=O)[C@H](Cc1c[nH]cn1)NC(=O)[C@H](CCCNC(=N)N)NC(=O)[C@H](CC(C)C)NC(=O)[C@H](Cc1ccccc1)NC(=O)[C@H](Cc1c[nH]cn1)NC(=O)[C@H](C)NC(=O)[C@H](CC(C)C)NC(=O)[C@H](CCCNC(=N)N)NC(=O)[C@H](CCC(N)=O)NC(=O)[C@@H](NC(=O)[C@H](C)NC(=O)[C@@H]1CSSC[C@H](NC(=O)[C@@H](N)CCCCNC(=O)COCCOCCNC(=O)CC[C@H](NC(=O)CCCCCCCCCCCCCCCCCCC(=O)O)C(=O)O)C(=O)N[C@@H](CC(N)=O)C(=O)N[C@@H]([C@@H](C)O)C(=O)N[C@@H](C)C(=O)N[C@@H]([C@@H](C)O)C(=O)N1)[C@@H](C)O)C(=O)N1CCC[C@H]1C(=O)N[C@@H](CO)C(=O)N[C@@H](CO)C(=O)N[C@H](C(=O)N[C@@H](CC(N)=O)C(=O)N[C@H](C(=O)NCC(=O)N[C@@H](CO)C(=O)N[C@@H](CC(N)=O)C(=O)N[C@H](C(=O)N[C@@H](Cc1ccc(O)cc1)C(N)=O)[C@@H](C)O)C(C)C)[C@@H](C)O
notes: also called compound 69
B2: N^ε1-[2-[2-[2-[[(4S)-4-carboxy-4-(19-carboxynonadecanoylamino)butanoyl]amino]ethoxy]ethoxy]acetyl]-[Arg14,Arg17,Pro21,Pro27,Pro31]-h-amylin (peptide)
peptide: K([AEEA-γGlu-C20 diacid])CNTATCATQRLARFLRHSSPNFGAIPSSTPVGSNTY-NH2
modifications: disulfide 2-7; N-terminus assumed
SMILES: CC[C@H](C)[C@H](NC(=O)[C@H](C)NC(=O)CNC(=O)[C@H](Cc1ccccc1)NC(=O)[C@H](CC(N)=O)NC(=O)[C@@H]1CCCN1C(=O)[C@H](CO)NC(=O)[C@H](CO)NC(=O)[C@H](Cc1c[nH]cn1)NC(=O)[C@H](CCCNC(=N)N)NC(=O)[C@H](CC(C)C)NC(=O)[C@H](Cc1ccccc1)NC(=O)[C@H](CCCNC(=N)N)NC(=O)[C@H](C)NC(=O)[C@H](CC(C)C)NC(=O)[C@H](CCCNC(=N)N)NC(=O)[C@H](CCC(N)=O)NC(=O)[C@@H](NC(=O)[C@H](C)NC(=O)[C@@H]1CSSC[C@H](NC(=O)[C@@H](N)CCCCNC(=O)COCCOCCNC(=O)CC[C@H](NC(=O)CCCCCCCCCCCCCCCCCCC(=O)O)C(=O)O)C(=O)N[C@@H](CC(N)=O)C(=O)N[C@@H]([C@@H](C)O)C(=O)N[C@@H](C)C(=O)N[C@@H]([C@@H](C)O)C(=O)N1)[C@@H](C)O)C(=O)N1CCC[C@H]1C(=O)N[C@@H](CO)C(=O)N[C@@H](CO)C(=O)N[C@H](C(=O)N1CCC[C@H]1C(=O)N[C@H](C(=O)NCC(=O)N[C@@H](CO)C(=O)N[C@@H](CC(N)=O)C(=O)N[C@H](C(=O)N[C@@H](Cc1ccc(O)cc1)C(N)=O)[C@@H](C)O)C(C)C)[C@@H](C)O
notes: also called compound 64
B3: N^ε1-[2-[2-[2-(19-carboxynonadecanoylamino)ethoxy]ethoxy]acetyl]-[Arg17,Pro21,Pro27,His34]-h-amylin (peptide)
peptide: K([AEEA-C20 diacid])CNTATCATQRLANFLRHSSPNFGAIPSSTNVGHNTY-NH2
modifications: disulfide 2-7; N-terminus assumed
SMILES: CC[C@H](C)[C@H](NC(=O)[C@H](C)NC(=O)CNC(=O)[C@H](Cc1ccccc1)NC(=O)[C@H](CC(N)=O)NC(=O)[C@@H]1CCCN1C(=O)[C@H](CO)NC(=O)[C@H](CO)NC(=O)[C@H](Cc1c[nH]cn1)NC(=O)[C@H](CCCNC(=N)N)NC(=O)[C@H](CC(C)C)NC(=O)[C@H](Cc1ccccc1)NC(=O)[C@H](CC(N)=O)NC(=O)[C@H](C)NC(=O)[C@H](CC(C)C)NC(=O)[C@H](CCCNC(=N)N)NC(=O)[C@H](CCC(N)=O)NC(=O)[C@@H](NC(=O)[C@H](C)NC(=O)[C@@H]1CSSC[C@H](NC(=O)[C@@H](N)CCCCNC(=O)COCCOCCNC(=O)CCCCCCCCCCCCCCCCCCC(=O)O)C(=O)N[C@@H](CC(N)=O)C(=O)N[C@@H]([C@@H](C)O)C(=O)N[C@@H](C)C(=O)N[C@@H]([C@@H](C)O)C(=O)N1)[C@@H](C)O)C(=O)N1CCC[C@H]1C(=O)N[C@@H](CO)C(=O)N[C@@H](CO)C(=O)N[C@H](C(=O)N[C@@H](CC(N)=O)C(=O)N[C@H](C(=O)NCC(=O)N[C@@H](Cc1c[nH]cn1)C(=O)N[C@@H](CC(N)=O)C(=O)N[C@H](C(=O)N[C@@H](Cc1ccc(O)cc1)C(N)=O)[C@@H](C)O)C(C)C)[C@@H](C)O
notes: also called compound 91
B4: N^ε1-[2-[2-[2-[[2-[2-[2-[[(4S)-4-carboxy-4-(19-carboxynonadecanoylamino)butanoyl]amino]ethoxy]ethoxy]acetyl]amino]ethoxy]ethoxy]acetyl]-[Arg17,Pro21,Pro27,Pro31 … (peptide)
peptide: K([AEEA-AEEA-γGlu-C20 diacid])CNTATCATQRLANFLRHSSPNFGAIPSSTPVGSNTY-NH2
modifications: disulfide 2-7; N-terminus assumed
SMILES: CC[C@H](C)[C@H](NC(=O)[C@H](C)NC(=O)CNC(=O)[C@H](Cc1ccccc1)NC(=O)[C@H](CC(N)=O)NC(=O)[C@@H]1CCCN1C(=O)[C@H](CO)NC(=O)[C@H](CO)NC(=O)[C@H](Cc1c[nH]cn1)NC(=O)[C@H](CCCNC(=N)N)NC(=O)[C@H](CC(C)C)NC(=O)[C@H](Cc1ccccc1)NC(=O)[C@H](CC(N)=O)NC(=O)[C@H](C)NC(=O)[C@H](CC(C)C)NC(=O)[C@H](CCCNC(=N)N)NC(=O)[C@H](CCC(N)=O)NC(=O)[C@@H](NC(=O)[C@H](C)NC(=O)[C@@H]1CSSC[C@H](NC(=O)[C@@H](N)CCCCNC(=O)COCCOCCNC(=O)COCCOCCNC(=O)CC[C@H](NC(=O)CCCCCCCCCCCCCCCCCCC(=O)O)C(=O)O)C(=O)N[C@@H](CC(N)=O)C(=O)N[C@@H]([C@@H](C)O)C(=O)N[C@@H](C)C(=O)N[C@@H]([C@@H](C)O)C(=O)N1)[C@@H](C)O)C(=O)N1CCC[C@H]1C(=O)N[C@@H](CO)C(=O)N[C@@H](CO)C(=O)N[C@H](C(=O)N1CCC[C@H]1C(=O)N[C@H](C(=O)NCC(=O)N[C@@H](CO)C(=O)N[C@@H](CC(N)=O)C(=O)N[C@H](C(=O)N[C@@H](Cc1ccc(O)cc1)C(N)=O)[C@@H](C)O)C(C)C)[C@@H](C)O
notes: also called compound 96
B5: N^ε1-[2-[2-[2-[[(4S)-4-carboxy-4-(19-carboxynonadecanoylamino)butanoyl]amino]ethoxy]ethoxy]acetyl]-[Ala14,Arg17,Pro21,Pro27,Pro31]-h-amylin (peptide)
peptide: K([AEEA-γGlu-C20 diacid])CNTATCATQRLAAFLRHSSPNFGAIPSSTPVGSNTY-NH2
modifications: disulfide 2-7; N-terminus assumed
SMILES: CC[C@H](C)[C@H](NC(=O)[C@H](C)NC(=O)CNC(=O)[C@H](Cc1ccccc1)NC(=O)[C@H](CC(N)=O)NC(=O)[C@@H]1CCCN1C(=O)[C@H](CO)NC(=O)[C@H](CO)NC(=O)[C@H](Cc1c[nH]cn1)NC(=O)[C@H](CCCNC(=N)N)NC(=O)[C@H](CC(C)C)NC(=O)[C@H](Cc1ccccc1)NC(=O)[C@H](C)NC(=O)[C@H](C)NC(=O)[C@H](CC(C)C)NC(=O)[C@H](CCCNC(=N)N)NC(=O)[C@H](CCC(N)=O)NC(=O)[C@@H](NC(=O)[C@H](C)NC(=O)[C@@H]1CSSC[C@H](NC(=O)[C@@H](N)CCCCNC(=O)COCCOCCNC(=O)CC[C@H](NC(=O)CCCCCCCCCCCCCCCCCCC(=O)O)C(=O)O)C(=O)N[C@@H](CC(N)=O)C(=O)N[C@@H]([C@@H](C)O)C(=O)N[C@@H](C)C(=O)N[C@@H]([C@@H](C)O)C(=O)N1)[C@@H](C)O)C(=O)N1CCC[C@H]1C(=O)N[C@@H](CO)C(=O)N[C@@H](CO)C(=O)N[C@H](C(=O)N1CCC[C@H]1C(=O)N[C@H](C(=O)NCC(=O)N[C@@H](CO)C(=O)N[C@@H](CC(N)=O)C(=O)N[C@H](C(=O)N[C@@H](Cc1ccc(O)cc1)C(N)=O)[C@@H](C)O)C(C)C)[C@@H](C)O
notes: also called compound 72
B6: N^ε1-[2-[2-[2-[[2-[2-[2-[[(4S)-4-carboxy-4-(19-carboxynonadecanoylamino)butanoyl]amino]ethoxy]ethoxy]acetyl]amino]ethoxy]ethoxy]acetyl]-[Arg17,Pro21,Pro27,Arg34 … (peptide)
peptide: K([AEEA-AEEA-γGlu-C20 diacid])CNTATCATQRLANFLRHSSPNFGAIPSSTNVGRNTY-NH2
modifications: disulfide 2-7; N-terminus assumed
SMILES: CC[C@H](C)[C@H](NC(=O)[C@H](C)NC(=O)CNC(=O)[C@H](Cc1ccccc1)NC(=O)[C@H](CC(N)=O)NC(=O)[C@@H]1CCCN1C(=O)[C@H](CO)NC(=O)[C@H](CO)NC(=O)[C@H](Cc1c[nH]cn1)NC(=O)[C@H](CCCNC(=N)N)NC(=O)[C@H](CC(C)C)NC(=O)[C@H](Cc1ccccc1)NC(=O)[C@H](CC(N)=O)NC(=O)[C@H](C)NC(=O)[C@H](CC(C)C)NC(=O)[C@H](CCCNC(=N)N)NC(=O)[C@H](CCC(N)=O)NC(=O)[C@@H](NC(=O)[C@H](C)NC(=O)[C@@H]1CSSC[C@H](NC(=O)[C@@H](N)CCCCNC(=O)COCCOCCNC(=O)COCCOCCNC(=O)CC[C@H](NC(=O)CCCCCCCCCCCCCCCCCCC(=O)O)C(=O)O)C(=O)N[C@@H](CC(N)=O)C(=O)N[C@@H]([C@@H](C)O)C(=O)N[C@@H](C)C(=O)N[C@@H]([C@@H](C)O)C(=O)N1)[C@@H](C)O)C(=O)N1CCC[C@H]1C(=O)N[C@@H](CO)C(=O)N[C@@H](CO)C(=O)N[C@H](C(=O)N[C@@H](CC(N)=O)C(=O)N[C@H](C(=O)NCC(=O)N[C@@H](CCCNC(=N)N)C(=O)N[C@@H](CC(N)=O)C(=O)N[C@H](C(=O)N[C@@H](Cc1ccc(O)cc1)C(N)=O)[C@@H](C)O)C(C)C)[C@@H](C)O
notes: also called compound 95

molecular target: T1, human amylin receptor (amylin 3(a) …); assay: cell-based or functional assay

hAmylin-R funct. EC50 [pM] | Ratio hCT/hAmylin funct. | Binder
94 |  | B1
378 |  | B2
40 | 36.9 | B3
181 |  | B4
106 |  | B5
651 |  | B6

molecular target: T2, human calcitonin receptor; assay: cell-based or functional assay

hCTR funct. EC50 [pM] | Binder
1250 | B1
22900 | B2
1480 | B3
3800 | B4
4760 | B5
21500 | B6
